Target: OsWRKY53 (WT) (Oryza sativa (rice)) (UniProt A7BEY7)
Experiment: EMSA
Conditions: 12 mM HEPES-KOH pH 8.0, 60 mM KCl, 4 mM MgCl2, 1 mM EDTA, 12% glycerol, 1 mM DTT, 2.5 mM PMSF, 0.1 ug protein in 20 ul, 20 min on ice; 6% PAGE in 1x TBE at …

OsWRKY53 (WT) (Oryza sativa (rice)), sequence (A7BEY7 entry or part of it): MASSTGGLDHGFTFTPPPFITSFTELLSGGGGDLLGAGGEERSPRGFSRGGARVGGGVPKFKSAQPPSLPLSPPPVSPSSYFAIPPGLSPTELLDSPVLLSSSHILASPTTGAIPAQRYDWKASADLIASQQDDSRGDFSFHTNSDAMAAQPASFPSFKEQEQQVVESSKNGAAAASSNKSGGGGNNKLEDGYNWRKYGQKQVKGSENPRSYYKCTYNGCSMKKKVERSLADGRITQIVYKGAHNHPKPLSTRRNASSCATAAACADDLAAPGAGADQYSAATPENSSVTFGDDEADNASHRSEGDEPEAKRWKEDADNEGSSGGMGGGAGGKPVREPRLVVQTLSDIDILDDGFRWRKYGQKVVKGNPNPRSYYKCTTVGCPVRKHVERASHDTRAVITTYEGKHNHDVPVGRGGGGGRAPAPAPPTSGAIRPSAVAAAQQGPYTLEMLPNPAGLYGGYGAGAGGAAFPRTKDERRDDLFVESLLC

Q: Which binding does the source give for “TTTGGGGATGCTTCGGCGAAGGGGGTGAGGTCAAAGCTCGTGCGGTTTGACCGGTCAGACGAGGCGGCTGAGGCTCGCGC (double strand) [W-box probe (W)]” here?
A: The binding was “binds”.
